Experimental data taken from paper PMC2920228.

Assays:
[1] = molecular target: ΔC11, C-terminal 11 AA truncated AgsA, His-tagged (Salmonella enterica serovar Typhimurium); assay: SEC
[2] = molecular target: ΔC11, C-terminal 11 AA truncated AgsA, His-tagged (Salmonella enterica serovar Typhimurium); assay: SEC; Superdex 200 XK 16/70, 20 mM Tris-HCl pH 8.0, 1 mM EDTA, 100 mM NaCl, run at 37°C
[3] = molecular target: ΔC11, C-terminal 11 AA truncated AgsA, His-tagged (Salmonella enterica serovar Typhimurium); assay: SEC; Superdex 200 XK 16/70, 20 mM Tris-HCl pH 8.0, 1 mM EDTA, 100 mM NaCl, run at 42°C
[4] = molecular target: AgsA (aggregation-suppressing protein, small heat shock protein), wild type, His-tagged (Salmonella enterica serovar Typhimurium); assay: SEC; Superdex 200 XK 16/70, 20 mM Tris-HCl pH 8.0, 1 mM EDTA, 100 mM NaCl, run at 25°C; apparent mass from a calibration curve
[5] = molecular target: AgsA (aggregation-suppressing protein, small heat shock protein), wild type, His-tagged (Salmonella enterica serovar Typhimurium); assay: FRET or BRET; data not shown; subunit exchange of fluorescein- and rhodamine-labelled AgsA at 45°C, 40 min

ΔC11, C-terminal 11 AA truncated AgsA, His-tagged (domain or fragment)
stoichiometry N [1]: 3 subunits | stoichiometry N [2]: 2 subunits | stoichiometry N [3]: 2 subunits

AgsA (aggregation-suppressing protein, small heat shock protein), wild type, His-tagged (natural protein)
stoichiometry N [4]: 22 subunits | decrease in donor fluorescence after 40 min [5]: 40%
